Measured values published in article PMC6326814.

Assays:
[1] = target: BbvCI R2 subunit, wild type (Geobacillus brevis); assay: SEC; purified enzyme at pH 7.5 (pH of the storage buffer); sample with 1:1 subunits by Supplementary Figure S1
[2] = target: BbvCI R2 subunit, wild type (Geobacillus brevis); assay: crystal structure; crystal form 1, grown from the purified enzyme with dsDNA oligos against 0.8 M ammonium sulfate, 100 mM sodium acetate pH 4.5, 2 mM CaCl2; only R2 in the crystal

Question: With BbvCI R1 subunit, wild type (enzyme) as the substance, how does the stoichiometry N [1] read?
Answer: 1 R1:R2

Question: How did the stoichiometry N [2] turn out when BbvCI R2 subunit, wild type (enzyme) was run?
Answer: 2
